Laboratory results from patent publication US8106168B2, “Metalloproteinase binding proteins” (Dyax Corp., priority 2005, dated 2012).
Substitutions are numbered along the chain they refer to.

B1: M0038-E06: human antibody (Fab, IgG) that binds and inhibits MMP-14; HC SEQ ID NO: 154, LC SEQ ID NO: 155 (antibody, V domains shown)
VH: EVQLLESGGGLVQPGGSLRLSCAASGFTFSPYVMHWVRQAPGKGLEWVSSISPSGGWTYYADSVKGRFTISRDNSKNTLYLQMNSLRAEDMAVYYCARGTGAYGMDVWGQGTTVTVSS
VL: QDIQMTQSPGTLSLSPGDRATLSCGASQLVVSNYIAWYQQKPGQAPRLLMYAGSIRATGIPDRFSGSGSGTDFTLTISRLEPEDFAIYYCQQRSNWPWTFGQGTKVEIK
modifications: Synthetically generated peptide
B2: M0040-A11: human antibody (Fab, IgG) that binds and inhibits MMP-14; HC SEQ ID NO: 164, LC SEQ ID NO: 165 (antibody, V domains shown)
VH: EVQLLESGGGLVQPGGSLRLSCAASGFTFSHYVMFWVRQAPGKGLEWVSRIVPSGGATMYADSVKGRFTISRDNSKNTLYLQMNSLRAEDTAVYYCARDRPLYDSSGYVDYWGQGTLVTVSS
VL: QSALTQPPSASGSPGQSVTISCTGTSSDVGAYNYVSWYQQHPDKAPKLIIYNVNERPSGVPDRFSGSKSGNTASLTVSGLQAEDEADYYCTSYAGSNKIGVSGTGTKVTVL
modifications: Synthetically generated peptide
B3: M0031-C02: human antibody (Fab, IgG) that binds and inhibits MMP-14; HC SEQ ID NO: 144, LC SEQ ID NO: 145 (antibody, V domains shown)
VH: EVQLLESGGGLVQPGGSLRLSCAASGFTFSPYPMGWVRQAPGKGLEWVSSIVSSGGLTLYADSVKGRFTISRDNSKNTLYLQMNSLRAEDTAVYYCARGGRLYDILTGQGAPFDYWGQGTLVTVSS
VL: QDIQMTQSPLSLPVTPGEPASISCRSSQSLLHSNGYYYLDWYLQKPGQSPQLLIYLGSYRASGVPDRFSGSGSGTDFTLKISSVEAEDVGVYYCMQALQTPLTFGGGTRVDIK
modifications: Synthetically generated peptide
B4: M0043-F01: Fab that binds human MMP-14; DNA LV SEQ ID NO: 130, HV SEQ ID NO: 131 (antibody, V domains shown)
VL: QSALTQPASVSGSPGQSITISCTGTSSDIGAYRYVSWYQQRPGKAPKLMIFDVTKRPSGVSNRFSGFKSGNTASLTISGLQAEDEADYYCSSFTSGSTFVFGTGTKVTVL
VH: EVQLLESGGGLVQPGGSLRLSCAASGFTFSKYSMYWVRQAPGKGLEWVSSISSSGGYTAYADSVKGRFTISRDNSKNTLYLQMNSLRAEDTAVYYCAIPWGSGSSWGQGTLVTVSS
modifications: Synthetically generated oligonucleotide
B5: M0043-G01: Fab that binds human MMP-14; DNA LV SEQ ID NO: 132, HV SEQ ID NO: 133 (antibody, V domains shown)
VL: QDIQMTQSPSAMSASVGDRVTITCRASQGISSWLAWYQQKPGKAPKLLIYAASSLQSGVPSRFSGSGSGTDFTLTISSLQPEDFATYYCQQANSFPLTFGGGTKVEIK
VH: EVQLLESGGGLVQPGGSLRLSCAASGFTFSFYSMHWVRQAPGKGLEWVSGISSSGGVTKYADSVKGRFTISRDNSKNTLYLQMNSLRAEDTAVYYCARARSTRGFDYWGQGTLVTVSS
modifications: Synthetically generated oligonucleotide
B6: M0044-B03: Fab that binds human MMP-14; DNA LV SEQ ID NO: 136, HV SEQ ID NO: 137 (antibody, V domains shown)
VL: B5 VL with A11S, M12V, G29N, S31Y, K40R, Q56H, N93K, L97V
VH: EVQLLESGGGLVQPGGSLRLSCAASGFTFSQYHMMWVRQAPGKGLEWVSSIGSSGYTKYADSVKGRFTISRDNSKNTLYLQMNSLRAEDTAVYYCAGAVAGTGAFDYWGQGTLVTVSS
modifications: Synthetically generated oligonucleotide
B7: M0044-D08: Fab that binds human MMP-14; DNA LV SEQ ID NO: 138, HV SEQ ID NO: 139 (antibody, V domains shown)
VL: QYELTQPLSVSVALGQTASISCWGHNIRIKNVHWYQQKPGQAPVVVMYIPERFSGSTSGNTATLTISGAQAGDEADYYCQVWDSSTVVFGGGTKLTVL
VH: EVQLLESGGGLVQPGGSLRLSCAASGFTFSKYPMSWVRQAPGKGLEWVSSIWPSGGHTFYADSVKGRFTISRDNSKNTLYLQMNSLRAEDTAVYYCAKNPGLRYAFDNWGRGTMVTVSS
modifications: Synthetically generated oligonucleotide
B8: M0032-B07: Fab that binds human MMP-14; DNA LV SEQ ID NO: 20, HV SEQ ID NO: 21 (antibody, V domains shown)
VH: EVQLLESGGGLVQPGGSLRLSCAASGFTFSPYLMHWVRQAPGKGLEWVSSIYPSGGITQYADSVKGRFTISRDNSKNTLYLQMNSLRAEDTAVYYCARFFPSHRDYTAFDTWGRGTLVTVSS
VL: QSVLTQEPSLTVSPGGTVTLTCASNTGAVTSGSYANWFQQKPGLTPRALIYSGTNKYSWTPARFSGSLFGGKAALTLSGVLPEDEAEYYCLVYYGGVWVFGGGTKLTVL
modifications: Synthetically generated oligonucleotide
B9: M0032-B09: Fab that binds human MMP-14; DNA LV SEQ ID NO: 22, HV SEQ ID NO: 23 (antibody, V domains shown)
VH: EVQLLESGGGLVQPGGSLRLSCAASGFTFSIYKMVWVRQAPGKGLEWVSSIGSSGGHTRYADSVKGRFTISRDNSKNTLYLQMNSLRAEDTAVYYCARAPYYYYMDVWGKGTTVTVSS
VL: QDIQMTQSPSSVSASVGDTVTITCRASQGISTWLAWYQHKPGKAPKLLIYAGPSLQSGVPSRFSGSGSGTEFTLTISSLHPEDFATYYCQQLNHYPMTFGQGTRLEIK
modifications: Synthetically generated oligonucleotide

Assays:
[1] = target: T1, MMP-16 (Homo sapiens, UniProt P51512); experiment: Cross-reactivity of Fabs with MMP-16 (Example 9); format: biochemical; set-up: key: X: Do not inhibit MMP-16 or MMP-24 at [I] = 100 nM level; Y: partially inhibit at [I] = 100 nM level; details: Fab, 100 nM final inhibitor concentration, 5 nM MMP-16
T1 sequence (P51512 120-607): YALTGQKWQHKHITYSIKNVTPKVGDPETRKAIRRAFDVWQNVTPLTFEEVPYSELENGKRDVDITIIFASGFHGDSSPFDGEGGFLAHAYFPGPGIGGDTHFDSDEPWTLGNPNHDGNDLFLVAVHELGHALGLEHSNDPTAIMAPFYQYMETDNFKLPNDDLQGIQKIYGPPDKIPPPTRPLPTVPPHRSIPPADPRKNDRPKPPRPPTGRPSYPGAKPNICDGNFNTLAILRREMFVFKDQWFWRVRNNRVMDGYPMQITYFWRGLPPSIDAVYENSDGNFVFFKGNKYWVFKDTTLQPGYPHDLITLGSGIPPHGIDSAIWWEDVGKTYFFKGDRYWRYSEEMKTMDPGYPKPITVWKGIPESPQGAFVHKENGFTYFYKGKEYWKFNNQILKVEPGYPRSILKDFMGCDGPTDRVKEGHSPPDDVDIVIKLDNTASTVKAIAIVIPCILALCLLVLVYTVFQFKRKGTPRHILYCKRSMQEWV
Experimental: (§1) For the studies summarized in Table 15, 1 μM of anti-MMP-14 Fab/IgG (100 nM final inhibitor concentration) were incubated with 5 nM of MMP-16 or 5 nM of MMP-24 for 30 minutes at 30° C., 10 μM of substrate was added, and the MMP-16 activity was measured.

[2] = target: T1, MMP-16; experiment: Cross-reactivity of Fabs and IgGs with MMP-16 (Example 8); format: biochemical; set-up: key to MMP-16 (cross-reactivity, class symbol): X: Does not inhibit MMP-16 at [I] = 100 nM level; details: 5 nM MMP16, 30 minutes at 30° C., 10 μM substrate
Experimental: For the studies summarized in Tables 13 and 14, 100 nM anti-MMP-14 Fab/IgG were incubated with 5 nM MMP16 for 30 minutes at 30° C., 10 μM of substrate was added, and the MMP-16 activity was measured.

[3] = target: T2, MMP-14 (Homo sapiens, UniProt P50281); experiment: IC50 for MMP-14 inhibition by Fabs and IgGs; format: biochemical; details: Fab
Experimental: MMP-14 binding proteins can be characterized in assays that measure their modulatory activity toward MMP-14 or fragments thereof in vitro or in vivo. For example, MMP-14 can be combined with a substrate such as Mca-Pro-Leu-Ala-Cys(Mob)-Trp-Ala-Arg-Dap(Dnp)-NH2 under assay conditions permitting cleavage by MMP-14. The assay is performed in the absence of the MMP-14 binding protein, and in the presence of increasing concentrations of the MMP-14 binding protein. The concentration of binding protein at which 50% of the MMP-14 activity (e.g., binding to the substrate) is inhibited is the IC50 value (Inhibitory Concentration 50%) or EC50 (Effective Concentration 50%) value for that binding protein.

[4] = target: MMP-24 (Homo sapiens, UniProt Q9Y5R2); experiment: Cross-reactivity of Fabs with MMP-24 (Example 9); format: biochemical; set-up: key to MMP-24 (cross-reactivity, class symbol): X: Do not inhibit MMP-16 or MMP-24 at [I] = 100 nM level; Y: partially inhibit at [I] = 100 nM level; details: Fab, 100 nM final inhibitor concentration; 5 nM MMP-24
Sequence of MMP-24 (Q9Y5R2 156-645): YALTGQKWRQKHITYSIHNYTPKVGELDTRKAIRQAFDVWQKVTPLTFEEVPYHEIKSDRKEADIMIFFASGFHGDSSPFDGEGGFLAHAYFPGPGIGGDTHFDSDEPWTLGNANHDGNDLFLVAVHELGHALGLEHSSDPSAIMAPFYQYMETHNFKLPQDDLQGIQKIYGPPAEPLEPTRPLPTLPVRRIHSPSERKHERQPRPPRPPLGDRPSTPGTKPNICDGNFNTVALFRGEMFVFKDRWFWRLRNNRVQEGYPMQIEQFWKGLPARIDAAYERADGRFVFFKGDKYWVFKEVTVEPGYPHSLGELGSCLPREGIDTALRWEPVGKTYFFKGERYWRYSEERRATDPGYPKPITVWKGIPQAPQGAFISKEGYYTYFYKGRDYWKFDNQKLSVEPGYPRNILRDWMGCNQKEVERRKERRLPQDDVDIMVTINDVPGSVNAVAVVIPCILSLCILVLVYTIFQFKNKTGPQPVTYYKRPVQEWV
Experimental: as §1

[5] = target: T2, MMP-14; experiment: Selection and phage ELISA screening of anti-MMP-14 Fabs; format: binding; details: Fab from FAB310 phage display library
Procedure, shortened: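 The FAB310 phage library was panned on biotinylated MMP-14, alone or complexed with bead-bound TIMP-2, at 500 nM and then 100 nM over three rounds. Phage was eluted with 2.5 μM TIMP-2, then 100 mM TEA. For ELISA, 95 clones per round were screened against 1 μg/ml biotinylated MMP-14 captured on streptavidin in TRIS/5 mM CaCl2, pH 7.5.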

Molecule	MMP-16 (cross-reactivity, class symbol) [1]	MMP-16 (cross-reactivity, class symbol) ([2]; Fab 100 nM)	MMP-16 (cross-reactivity, class symbol) ([2]; IgG 100 nM)	bind to and inhibit human MMP-14 [3]	MMP-24 (cross-reactivity, class symbol) [4]	bind to human MMP-14 [5]	MMP-24 inhibition [4]
B1	X	X	X	bind to and inhibit human MMP-14	X	bind to human MMP-14	–
B2	X	X	X	bind to and inhibit human MMP-14	–	bind to human MMP-14	Y 58% inhibition
B3	X	X	X	bind to and inhibit human MMP-14	–	bind to human MMP-14	Y 54% inhibition
B4	–	–	–	–	–	bind to human MMP-14	–
B5	–	–	–	–	–	bind to human MMP-14	–
B6	–	–	–	–	–	bind to human MMP-14	–
B7	–	–	–	–	–	bind to human MMP-14	–
B8	–	–	–	–	–	bind to human MMP-14	–
B9	–	–	–	–	–	bind to human MMP-14	–
